Experimental findings from the supplement of paper PMC10126150 are described below.

The data set deals with ATP. In words: switch fluorescence ratio, 500 uM ATP over buffer (Cy3 cluster intensity, sum of 5 cycles each) (fold (ratio)); higher = stronger signal-on switching upon ATP binding; sequences stand for … in TCGTCGGCAGCGTCAGATGTGTATAAGAGACAGTTTTTTTTTTTTTTTTTTTTTTTTT…TC. To be noted: aptamer strand: ATP DNA aptamer (quencher-CACCTGGGGGAGTATTGCGGAGGAAGG + anchor), 100 nM annealed; ATP concentration: 500 uM. In short, it runs like this:
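The fluorescence ratio divides summed target-cycle Cy3 intensity by summed buffer-cycle Cy3 intensity for each cluster and is averaged per switch-domain sequence. Cy3-labelled switching-strand clusters on a modified Illumina MiSeq flow-cell were annealed to 100 nM quencher-labelled ATP aptamer, then imaged in selection buffer and again after 15 min with 500 uM ATP at 22 °C. Five such cycles were run, with NaOH stripping and re-annealing between them, and clusters outside 100-1000 RFU were excluded.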

± gives the standard deviation of the averaged measurements.
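Note: ATP exposure 15 min at 22 °C before imaging.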

Consider AAGGTAACGG, for which the switch fluorescence ratio is 0.972 ± 0.038.

Turning to AAGGTAATCC, the switch fluorescence ratio was determined as 1.01 ± 0.039. As for AAGGTCGTAT, the switch fluorescence ratio turned out to be 0.9922 ± 0.009. For AAGGTCTTTG, the switch fluorescence ratio came to 1.01 ± 0.043. As to AAGGTGCCGG, the switch fluorescence ratio came to 1.0373 ± 0.00076.

With AAGGTGCCTG, the switch fluorescence ratio came out at 1.02 ± 0.064. As to AAGGTGTCGG, the switch fluorescence ratio turned out to be 0.9895 ± 0.0037. Take AAGGTGTGCG: the switch fluorescence ratio stood at 1.02 ± 0.024. On to AAGGTGTTGG, for which the switch fluorescence ratio was found to be 1.04 ± 0.021.

As to AAGGTGTTTT, the switch fluorescence ratio was 1.08 ± 0.016. The same measure for AAGGTTAATT: 1 ± 0.022. In the case of AAGGTTACTC, the switch fluorescence ratio was found to be 1.01 ± 0.029.

AAGGTTAGGT: the switch fluorescence ratio was found to be 1.03 ± 0.041. The same measure for AAGGTTCTTT: 0.988 ± 0.022; for AAGGTTGATA: 0.988 ± 0.032. In the case of AAGGTTGATG it was 0.982 ± 0.02; in that of AAGGTTGCAA, 1.01 ± 0.011.

With AAGGTTGCGC, the switch fluorescence ratio stood at 0.986 ± 0.026. In the case of AAGGTTGGTC it was 1 ± 0.027; in that of AAGGTTGTAA, 0.985 ± 0.021; in that of AAGGTTTAGT, 1 ± 0.024.

Regarding AAGGTTTCAA, the switch fluorescence ratio was 0.985 ± 0.018.

AAGGTTTGCG: the switch fluorescence ratio worked out at 1.01 ± 0.025.

For the sequence AAGGTTTGTT, the switch fluorescence ratio is 0.996 ± 0.049. Turning to AAGTAAAAAT, the switch fluorescence ratio was 1.05 ± 0.036.

Turning to AAGTAAAGCT, the switch fluorescence ratio is 1.11 ± 0.06. Turning to AAGTAATGGG, the switch fluorescence ratio is 0.961 ± 0.041.

Consider AAGTACAGGC, for which the switch fluorescence ratio amounted to 1.27 ± 0.12.

In the case of AAGTACCCGG, the switch fluorescence ratio was determined as 1.14 ± 0.026. Turning to AAGTACTAGC, the switch fluorescence ratio is 1.212 ± 0.0086. In the case of AAGTAGGTAT it was 1.02 ± 0.011; in that of AAGTAGTCTT, 0.995 ± 0.014; in that of AAGTATGGGA, 1.02 ± 0.028. In the case of AAGTATTGGT it was 1.02 ± 0.041. Turning to AAGTCAATTC, the switch fluorescence ratio worked out at 1.36 ± 0.12. With AAGTCACGGT, the switch fluorescence ratio worked out at 1.09 ± 0.02. The same measure for AAGTCAGTGC: 1.11 ± 0.013; for AAGTCATGGA: 1.02 ± 0.027; for AAGTCATTTG: 1.017 ± 0.0088. In the case of AAGTCGCATA, the switch fluorescence ratio worked out at 1.04 ± 0.017.

AAGTCGCGGA: the switch fluorescence ratio was found to be 0.999 ± 0.033. Consider AAGTCGGATG, for which the switch fluorescence ratio amounted to 1.04 ± 0.079. In the case of AAGTCGGGTG it was 1.08 ± 0.024. The same measure for AAGTCTATAA: 1.02 ± 0.046; for AAGTCTGGGC: 1.01 ± 0.036.

Regarding AAGTCTGGGG, the switch fluorescence ratio was 1.01 ± 0.027. The same measure for AAGTGAAATT: 1.02 ± 0.018; for AAGTGAATAA: 0.998 ± 0.017.

For the sequence AAGTGAGCAG, the switch fluorescence ratio turned out to be 1.012 ± 0.0072.

Consider AAGTGATGCT, for which the switch fluorescence ratio was determined as 1.03 ± 0.087. Take AAGTGCAGGG: the switch fluorescence ratio turned out to be 0.9896 ± 0.0057. For AAGTGCGACC, the switch fluorescence ratio came to 1.03 ± 0.057.

In the case of AAGTGGAGGG, the switch fluorescence ratio came out at 0.985 ± 0.021. In the case of AAGTGGGGTT, the switch fluorescence ratio was determined as 1.02 ± 0.029.

In the case of AAGTGGGTTA, the switch fluorescence ratio is 1.02 ± 0.032. The same measure for AAGTGGTTA: 0.981 ± 0.026. The same measure for AAGTGTCCCG: 0.994 ± 0.032; for AAGTGTCGTG: 0.959 ± 0.024.

For the sequence AAGTGTTAG, the switch fluorescence ratio came to 0.966 ± 0.011. In the case of AAGTGTTGGC it was 1.014 ± 0.01; in that of AAGTGTTTT, 1.016 ± 0.005; in that of AAGTTAAAA, 1.04 ± 0.092. In the case of AAGTTAAAAG, the switch fluorescence ratio was 0.975 ± 0.012.

Regarding AAGTTAAGCC, the switch fluorescence ratio came to 1.01 ± 0.047. Regarding AAGTTAAGGG, the switch fluorescence ratio was determined as 0.995 ± 0.055. The same measure for AAGTTACATT: 1.05 ± 0.012; for AAGTTATCAT: 0.964 ± 0.019.

Regarding AAGTTATGAC, the switch fluorescence ratio was 1.03 ± 0.029. As for AAGTTATTAC, the switch fluorescence ratio turned out to be 1 ± 0.032.

With AAGTTCCGGA, the switch fluorescence ratio was 1.034 ± 0.0072.

Consider AAGTTCGATG, for which the switch fluorescence ratio stood at 0.976 ± 0.025. In the case of AAGTTCGCCT it was 1.09 ± 0.13. The same measure for AAGTTCGCTG: 1.01 ± 0.065; for AAGTTGACCG: 1.04 ± 0.046; for AAGTTGGTGT: 1.02 ± 0.043. AAGTTGTATT: the switch fluorescence ratio was 0.9974 ± 0.0019. In the case of AAGTTGTCTG it was 0.978 ± 0.056. In the case of AAGTTGTGA it was 0.973 ± 0.035.
